In patent US20030135880A1, “Compositions and methods for halogenation reactions” (priority 2002, published 2003):

Target: PrnA (Pseudomonas fluorescens, UniProt P95480)
Experiment: Halogenation by PrnA expressed in transgenic plants, immunopurified and assayed in vitro (Example 5)
Format: biochemical
Set-up: made in house; host or cells: Transgenic Arabidopsis thaliana (Columbia) lines 3 and 12; leaf extract immunopurified on goat anti-PrnA sera with anti-goat-IgG-agarose
Settings: immunopurified PrnA with Fre (20 microliter, 21 microgram/ml), overnight
Protocol: Arabidopsis thaliana, ecotype Columbia, is transformed (by the Agrobacterium-mediated transformation method) with the four nucleic acid molecules of the pyrrolnitrin operon, encoding PrnA, PrnB, PrnC & PrnD, each behind the ubiquitin promoter as described below in Example 6.
Two transformed lines (3 and 12) and a nontransformed control line are grown and leaves (1 g) harvested. The leaves are frozen in liquid N2, powdered in a mortar and extracted with 6 ml of LS buffer (50 mM HEPES, pH 7.5, 5 mM NaCl). After centrifugation at 5000×g for 15 min to pellet debris, the supernate is filtered through glass wool to remove residual particles.
PrnA is immunopurified by mixing extract (3 ml) with an affinity matrix. The affinity matrix is prepared by mixing for 30 minutes, at room temperature, 100 microliters of rabbit antigoat-IgG-agarose (purchased from Sigma) with 50 microliters of goat anti-PrnA sera. Then the agarose beads are washed three times with 1 ml of LS buffer. After mixing the 3 ml sample with the affinity matrix, unabsorbed material is removed from the beads by washing with LS buffer. A positive control sample is prepared by mixing 5 microliter of PrnA (0.36 microgram/microliter) purified from Pseudomonas fluorescens as described in Example 1 with 3 ml LS then treating in parallel with the plant extract samples. […]

B1: PrnA: PrnA purified from Pseudomonas fluorescens, positive control added to non-transformed plant extract (protein)
chain: MNKPIKNIVIVGGGTAGWMAASYLVRALQQQANITLIESAAIPRIGVGEATIPSLQKVFFDFLGIPEREWMPQVNGAFKAAIKFVNWRKSPDPSRDDHFYHLFGNVPNCDGVPLTHYWLRKREQGFQQPMEYACYPQPGALDGKLAPCLSDGTRQMSHAWHFDAHLVADFLKRWAVERGVNRVVDEVVDVRLNNRGYISNLLTKEGRTLEADLFIDCSGMRGLLINQALKEPFIDMSDYLLCDSAVASAVPNDDARDGVEPYTSSIAMNSGWTWKIPMLGRFGSGYVFSSHFTSRDQATADFLKLWGLSDNQPLNQIKFRVGRNKRAWVNNCVSIGLSSCFLEPLESTGIYFIYAALYQLVKHFPDTSFDPRLSDAFNAEIVHMFDDCRDFVQAHYFTTSRDDTPFWLANRHDLRLSDAIKEKVQRYKAGLPLTTTSFDDSTYYETFDYEFKNFWLNGNYYCIFAGLGMLPDRSLPLLQHRPESIEKAEAMFASIRREAERLRTSLPTNYDYLRSLRDGDAGLSRGQRGPKLAAQESL
  level of 7-Cl-Trp found: 185 pmol
